These results are taken from US20170174700A1.

Assay [1] concerns the target streptavidin (UniProt P22629). Nature of the assay: BLI (Octet), streptavidin biosensor tips, conjugate in solution, 25 C.
In assay [2] the target is streptavidin (UniProt P22629). Nature of the assay: release from streptavidin beads by biotin.
For assay [3], the target named is streptavidin (UniProt P22629). Nature of the assay: release from M280 Streptavidin Dynabeads by 5 mM biotin or bis-biotin, fluorescence of supernatant.

Sequence of streptavidin (P22629 37-163 limits assumed): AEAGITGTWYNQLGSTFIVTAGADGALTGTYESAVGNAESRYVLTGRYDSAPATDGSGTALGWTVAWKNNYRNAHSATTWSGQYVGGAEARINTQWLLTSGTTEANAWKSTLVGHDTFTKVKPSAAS

In the assay with streptavidin [1], Biotin-Ab (antibody) came in with a Kd of 0.00595 pM, a koff of 1.43e-07 s⁻¹ and an on-rate constant (kon) of 2.41e+07 M⁻¹ s⁻¹. The substance also returned a Detach. with streptavidin [2] of 0%.

For the substance “18-Ab (goat anti-mouse IgG linked to biotin derivative 18) (antibody)”, the Detachment with streptavidin [3] stood at 85%.

On to “DSB-X-Ab (goat anti-mouse IgG linked to DSB-X) (antibody)”, for which the Detachment with streptavidin [3] is 16%.

For orientation: Kd means a measure of binding affinity in units of concentration. The koff is a measure of how fast the partners let go of each other. A high value points to fast dissociation. In general, kon refers to the rate constant with which the complex forms. The low end stands for slower complex formation, the high end for faster complex formation.
